Values quoted from earlier work as cited in patent publication US20200069786A1, “COMPOSITION AND PROCESS FOR PREPARING VACCINE” (TREOS BIO ZRT., priority 2018, published 2020).
Read-outs that look alike come from different tables or passages of the source.

B1: CAGE1 (protein, UniProt Q8TC20 1-777, looked up)
Cancer-associated gene 1 …: MNKDYQKFWSSPSDPVHFEVDTSHEKVESMSESDTMNVSNLSQGVMLSHSPICMETTGTTCDLPQNEIKNFERENEYESTLCEDAYGTLDNLLNDNNIENYSTNALIQPVDTISISSLRQFETVCKFHWVEAFDDEMTEKPEFQSQVYNYAKDNNIKQDSFKEENPMETSVSANTDQLGNEYFRQPPPRSPPLIHCSGEMLKFTEKSLAKSIAKESALNPSQPPSFLCKTAVPSKEIQNYGEIPEMSVSYEKEVTAEGVERPEIVSTWSSAGISWRSEACRENCEMPDWEQSAESLQPVQEDMALNEVLQKLKHTNRKQEVRIQELQCSNLYLEKRVKELQMKITKQQVFIDVINKLKENVEELIEDKYKIILEKNDTKKTLQNLEEVLANTQKHLQESRNDKEMLQLQFKKIKANYVCLQERYMTEMQQKNKSVSQYLEMDKTLSKKEEEVERLQQLKKELEKATASALDLLKREKEAQEQEFLSLQEEFQKLEKENLEERQKLKSRLEKLLTQVRNLQFMSENERTKNIKLQQQINEVKNENAKLKQQVARSEEQNYVPKFETAQLKDQLEEVLKSDITKDTKTTHSNLLPDCSPCEERLNPADIKRASQLASKMHSLLALMVGLLTCQDIINSDAEHFKESEKVSDIMLQKLKSLHLKKKTLDKEVIDCDSDEAKSIRDVPTLLGAKLDKYHSLNEELDFLVTSYEEIIECADQRLAISHSQIAHLEERNKHLEDLIRKPREKARKPRSKSLENHPKSMTMMPALFKENRNDLD
B2: FATE1 (protein, UniProt Q969F0 1-183, looked up)
Fetal and adult …: MAGGPPNTKAEMEMSLAEELNHGRQGENQEHLVIAEMMELGSRSRGASQKKQKLEQKAAGSASAKRVWNMTATRPKKMGSQLPKPRMLRESGHGDAHLQEYAGNFQGIRFHYDRNPGTDAVAQTSLEEFNVLEMEVMRRQLYAVNRRLRALEEQGATWRHRETLIIAVLVSASIANLWLWMNQ
B3: NY-BR-1 (protein, UniProt Q9BXX3 1-1397, looked up)
Ankyrin repeat …: MEEISAAAVKVVPGPERPSPFSQLVYTSNDSYIVHSGDLRKIHKAASRGQVRKLEKMTKRKKTINLNIQDAQKRTALHWACVNGHEEVVTFLVDRKCQLDVLDGEHRTPLMKALQCHQEACANILIDSGADINLVDVYGNTALHYAVYSEILSVVAKLLSHGAVIEVHNKASLTPLLLSITKRSEQIVEFLLIKNANANAVNKYKCTALMLAVCHGSSEIVGMLLQQNVDVFAADICGVTAEHYAVTCGFHHIHEQIMEYIRKLSKNHQNTNPEGTSAGTPDEAAPLAERTPDTAESLVEKTPDEAAPLVERTPDTAESLVEKTPDEAASLVEGTSDKIQCLEKATSGKFEQSAEETPREITSPAKETSEKFTWPAKGRPRKIAWEKKEDTPREIMSPAKETSEKFTWAAKGRPRKIAWEKKETPVKTGCVARVTSNKTKVLEKGRSKMIACPTKESSTKASANDQRFPSESKQEEDEEYSCDSRSLFESSAKIQVCIPESIYQKVMEINREVEEPPKKPSAFKPAIEMQNSVPNKAFELKNEQTLRADPMFPPESKQKDYEENSWDSESLCETVSQKDVCLPKATHQKEIDKINGKLEESPNKDGLLKATCGMKVSIPTKALELKDMQTFKAEPPGKPSAFEPATEMQKSVPNKALELKNEQTLRADEILPSESKQKDYEENSWDTESLCETVSQKDVCLPKAAHQKEIDKINGKLEGSPVKDGLLKANCGMKVSIPTKALELMDMQTFKAEPPEKPSAFEPAIEMQKSVPNKALELKNEQTLRADEILPSESKQKDYEESSWDSESLCETVSQKDVCLPKATHQKEIDKINGKLEESPDNDGFLKAPCRMKVSIPTKALELMDMQTFKAEPPEKPSAFEPAIEMQKSVPNKALELKNEQTLRADQMFPSESKQKKVEENSWDSESLRETVSQKDVCVPKATHQKEMDKISGKLEDSTSLSKILDTVHSCERARELQKDHCEQRTGKMEQMKKKFCVLKKKLSEAKEIKSQLENQKVKWEQELCSVRLTLNQEEEKRRNADILNEKIREELGRIEEQHRKELEVKQQLEQALRIQDIELKSVESNLNQVSHTHENENYLLHENCMLKKEIAMLKLEIATLKHQYQEKENKYFEDIKILKEKNAELQMTLKLKEESLTKRASQYSGQLKVLIAENTMLTSKLKEKQDKEILEAEIESHHPRLASAVQDHDQIVTSRKSQEPAFHIAGDACLQRKMNVDVSSTIYNNEVLHQPLSEAQRKSKSLKINLNYAGDALRENTLVSEHAQRDQRETQCQMKEAEHMYQNEQDNVNKHTEQQESLDQKLFQLQSKNMWLQQQLVHAHKKADNKSKITIDIHFLERKMQHHLLKEKNEEIFNYNNHLKNRIYQYEKEKAETENS
B4: MAGE-A8 (protein, UniProt P43361 1-318, looked up)
Melanoma-associated antigen 8: MLLGQKSQRYKAEEGLQAQGEAPGLMDVQIPTAEEQKAASSSSTLIMGTLEEVTDSGSPSPPQSPEGASSSLTVTDSTLWSQSDEGSSSNEEEGPSTSPDPAHLESLFREALDEKVAELVRFLLRKYQIKEPVTKAEMLESVIKNYKNHFPDIFSKASECMQVIFGIDVKEVDPAGHSYILVTCLGLSYDGLLGDDQSTPKTGLLIIVLGMILMEGSRAPEEAIWEALSVMGLYDGREHSVYWKLRKLLTQEWVQENYLEYRQAPGSDPVRYEFLWGPRALAETSYVKVLEHVVRVNARVRISYPSLHEEALGEEKGV
B5: TSPY1 (protein, UniProt Q01534 1-308, looked up)
Testis-specific Y-encoded …: MRPEGSLTYRVPERLRQGFCGVGRAAQALVCASAKEGTAFRMEAVQEGAAGVESEQAALGEEAVLLLDDIMAEVEVVAEEEGLVERREEAQRAQQAVPGPGPMTPESAPEELLAVQVELEPVNAQARKAFSRQREKMERRRKPHLDRRGAVIQSVPGFWANVIANHPQMSALITDEDEDMLSYMVSLEVGEEKHPVHLCKIMLFFRSNPYFQNKVITKEYLVNITEYRASHSTPIEWYPDYEVEAYRRRHHNSSLNFFNWFSDHNFAGSNKIAEILCKDLWRNPLQYYKRMKPPEEGTETSGDSQLLS
B6: GASZ (protein, UniProt Q8WWH4 1-475, looked up)
Ankyrin repeat, SAM and basic …: MAASALRGLPVAGGGESSESEDDGWEIGYLDRTSQKLKRLLPIEEKKEKFKKAMTIGDVSLVQELLDSGISVDSNFQYGWTPLMYAASVANAELVRVLLDRGANASFEKDKQSILITACSAHGSEEQILKCVELLLSRNADPNVACRRLMTPIMYAARDGHTQVVALLVAHGAEVNTQDENGYTALTWAARQGHKNIVLKLLELGANKMLQTKDGKMPSEIAKRNKHHEIFNLLSFTLNPLEGKLQQLTKEDTICKILTTDSDREKDHIFSSYTAFGDLEVFLHGLGLEHMTDLLKERDITLRHLLTMREDEFTKNGITSKDQQKILAALKELQVEEIQFGELSEETKLEISGDEFLNFLLKLNKQCGHLITAVQNVITELPVNSQKITLEWASPQNFTSVCEELVNNVEDLSEKVCKLKDLIQKLQNERENDPTHIQLREEVSTWNSRILKRTAITICGFGFLLFICKLTFQRK
B7: MAGE-A12 (protein, UniProt P43365 1-314, looked up)
Melanoma-associated antigen 12: MPLEQRSQHCKPEEGLEAQGEALGLVGAQAPATEEQETASSSSTLVEVTLREVPAAESPSPPHSPQGASTLPTTINYTLWSQSDEGSSNEEQEGPSTFPDLETSFQVALSRKMAELVHFLLLKYRAREPFTKAEMLGSVIRNFQDFFPVIFSKASEYLQLVFGIEVVEVVRIGHLYILVTCLGLSYDGLLGDNQIVPKTGLLIIVLAIIAKEGDCAPEEKIWEELSVLEASDGREDSVFAHPRKLLTQDLVQENYLEYRQVPGSDPACYEFLWGPRALVETSYVKVLHHLLKISGGPHISYPPLHEWAFREGEE
B8: MAGE-A6 (protein, UniProt P43360 1-314, looked up)
Melanoma-associated antigen 6: MPLEQRSQHCKPEEGLEARGEALGLVGAQAPATEEQEAASSSSTLVEVTLGEVPAAESPDPPQSPQGASSLPTTMNYPLWSQSYEDSSNQEEEGPSTFPDLESEFQAALSRKVAKLVHFLLLKYRAREPVTKAEMLGSVVGNWQYFFPVIFSKASDSLQLVFGIELMEVDPIGHVYIFATCLGLSYDGLLGDNQIMPKTGFLIIILAIIAKEGDCAPEEKIWEELSVLEVFEGREDSIFGDPKKLLTQYFVQENYLEYRQVPGSDPACYEFLWGPRALIETSYVKVLHHMVKISGGPRISYPLLHEWALREGEE
B9: IGFS11 (protein, UniProt Q5DX21 23-431, looked up)
Immunoglobulin superfamily …: LEVSESPGSIQVARGQPAVLPCTFTTSAALINLNVIWMVTPLSNANQPEQVILYQGGQMFDGAPRFHGRVGFTGTMPATNVSIFINNTQLSDTGTYQCLVNNLPDIGGRNIGVTGLTVLVPPSAPHCQIQGSQDIGSDVILLCSSEEGIPRPTYLWEKLDNTLKLPPTATQDQVQGTVTIRNISALSSGLYQCVASNAIGTSTCLLDLQVISPQPRNIGLIAGAIGTGAVIIIFCIALILGAFFYWRSKNKEEEEEEIPNEIREDDLPPKCSSAKAFHTEISSSDNNTLTSSNAYNSRYWSNNPKVHRNTESVSHFSDLGQSFSFHSGNANIPSIYANGTHLVPGQHKTLVVTANRGSSPQVMSRSNGSVSRKPRPPHTHSYTISHATLERIGAVPVMVPAQSRAGSLV

Test system: TSA
[1] = TSA expression rate in Cervical cancer
[2] = TSA expression rate in GASTRIC cancer
[3] = TSA expression rate in LUNG cancer
[4] = TSA expression rate in HEAD and NECK
[5] = TSA expression rate in BLADDER cancer
[6] = TSA expression rate in MELANOMA
[7] = TSA expression rate in LEUKEMIAS
[8] = TSA expression rate in Esophageal
[9] = TSA expression rate in PEDIATRIC
[10] = TSA expression rate in PROSTATE cancer

| Molecule | TSA Expression Rate (ER) (HCC) | Expression Rate (ER) % (TSA expression rate in CRC) | Expression Rate (ER) % [2] | Expression Rate (ER) % [3] | TSA Expression Rate (ER) (BREAST) | Expression Rate (ER) % [4] | Expression Rate (ER) % [5] | Expression Rate (ER) % [6] | Expression Rate (ER) % (TSA expression rate in Kidney) | TSA Expression Rate (ER) (LUNG) | other results |
| --- | --- | --- | --- | --- | --- | --- | --- | --- | --- | --- | --- |
| B1 | 39% | 74% | 77% | 14% | – | – | – | – | – | – | Expression Rate (ER) % [1]: 98% |
| B2 | 49% | 21% | 2% | 0% | – | – | – | – | – | – | – |
| B3 | – | – | – | – | 47% | 2% | – | – | – | – | – |
| B4 | 45% | 44% | – | – | – | – | 57% | 10% | – | – | – |
| B5 | 35% | – | 0% | 0% | – | – | 0% | – | 5% | – | Expression Rate (ER) % [7]: 12%; Expression Rate (ER) % (TSA expression rate in LYMPHOMAS): 0% |
| B6 | – | 22% | 0% | – | – | – | – | 17% | – | 29% | TSA Expression Rate (ER) (THYROID): 13%; Expression Rate (ER) % [1]: 50% |
| B7 | 36% | 6% | – | – | 12% | 34% | 29% | 49% | 4% | 31% | Expression Rate (ER) % [8]: 26%; Expression Rate (ER) % [7]: 21%; Expression Rate (ER) % [9]: 41%; Expression Rate (ER) % [10]: 5% |
| B8 | 36% | 22% | – | – | 15% | 58% | 25% | 65% | 0% | 51% | Expression Rate (ER) % [8]: 68%; Expression Rate (ER) % [9]: 80%; Expression Rate (ER) % [10]: 23% |
| B9 | 60% | – | 88% | – | – | – | – | – | – | – | – |
